Substitutions are numbered along the chain they refer to. Where two headings read alike, the source gives them in different places. Blank lines part the entries; values can stand above or below the binder they belong to.
Experiments:
[1] = biological target: T1, human PD-L1 on cells (CHO cells that stably expressed human PD-L1; MDA-MB-231 cells) (human, UniProt Q9NZQ7 19-290); assay: flow cytometry on MDA-MB-231 cells (human PD-L1), anti-human IgG-Fc DyLight 650 detection
T1 construct: whole, on cells; Stably expressed on CHO cells; also called CHO cells expressing human PD-L1
Experimental: Human breast cell strain MDA-MB-231 (Shanghai Chinese Academy of Sciences Cell Library) highly expresses the human PD-L1 molecule. […] After cell washing, Goat F(ab′)₂ Anti-Human IgG-Fc (DyLight 650) (ab98593, abcam) was added and incubated at 4° C. for 30 min. After cell washing, the fluorescence intensity was detected by a flow cytometer (Intellicyt iQue Screener).

[2] = biological target: T1, human PD-L1 on cells (CHO cells that …); assay: flow cytometry competition: biotin-labelled human PD-1-Fc at a subsaturated concentration on CHO cells stably expressing human PD-L1, antibody titrated, streptavidin R-PE detection
Experimental: (§1) After cell washing, Streptavidin R-PE Conjugate (life technology, SA10041) was added and incubated (4° C., 30 min). After cell washing, the fluorescence intensity was detected by a flow cytometer (Intellicyt iQue Screener).

[3] = biological target: T2, recombinant human PD-L1-His protein (Origincell Therapeutics Co., Ltd.) (human, UniProt Q9NZQ7 19-238, limits assumed); assay: BLI (Octet RED384), antibody on AHC sensor, PD-L1-His in solution
T2 construct: not shown: His tag

[4] = biological target: T3, mouse PD-L1 on CHO cells that stably expressed mouse PD-L1 (mouse, UniProt Q9EP73 19-290); assay: flow cytometry on CHO cells stably expressing mouse PD-L1, anti-human IgG-Fc DyLight 650 detection
T3 construct: whole, on cells; also called CHO cells expressing mouse PD-L1
Experimental: The mixture was mixed well and incubated at 4° C. for 1 hr. After cell washing, Goat F(ab′)₂ Anti-Human IgG-Fc (DyLight 650) (ab98593) was added and incubated at 4° C. for 30 min. After cell washing, the fluorescence intensity was detected by a flow cytometer (Intellicyt iQue Screener).

[5] = biological target: T3, mouse PD-L1 on CHO cells that stably …; assay: flow cytometry competition: biotin-labelled mouse PD-1-Fc at a subsaturated concentration on CHO cells stably expressing mouse PD-L1, antibody titrated, streptavidin R-PE detection
Experimental: as §1

[6] = biological target: T3, mouse PD-L1 on CHO cells that stably …; assay: as above; remark: listed apart in the source
Experimental: as §1

[7] = biological target: T1, human PD-L1 on cells (CHO cells that …); assay: flow cytometry competition: biotin-labelled human PD-1-Fc at a subsaturated concentration on CHO cells stably expressing human PD-L1, antibody titrated, streptavidin R-PE detection; remark: listed apart in the source
Experimental: as §1

[8] = biological target: T1, human PD-L1 on cells (CHO cells that …); assay: flow cytometry on CHO cells stably expressing human PD-L1, anti-human IgG-Fc DyLight 650 detection
Experimental: The mixture was mixed well and incubated at 4° C. for 1 hr. After cell washing, Goat F(ab)₂ Anti-Human IgG-Fc (DyLight 650) (ab98593, Abcam) was added and incubated at 4° C. for 30 min. After cell washing, the fluorescence intensity was detected by a flow cytometer (Intellicyt iQue Screener).

[9] = biological target: T1, human PD-L1 on cells (CHO cells that …); assay: as above; remark: listed apart in the source
Experimental: After cell washing, Goat F(ab′)₂ Anti-Human IgG-Fc (DyLight 650) (ab98593, abcam) was added and incubated at 4° C. for 30 min. After cell washing, the fluorescence intensity was detected by a flow cytometer (Intellicyt iQue Screener).

T3 sequence (Q9EP73 19-290): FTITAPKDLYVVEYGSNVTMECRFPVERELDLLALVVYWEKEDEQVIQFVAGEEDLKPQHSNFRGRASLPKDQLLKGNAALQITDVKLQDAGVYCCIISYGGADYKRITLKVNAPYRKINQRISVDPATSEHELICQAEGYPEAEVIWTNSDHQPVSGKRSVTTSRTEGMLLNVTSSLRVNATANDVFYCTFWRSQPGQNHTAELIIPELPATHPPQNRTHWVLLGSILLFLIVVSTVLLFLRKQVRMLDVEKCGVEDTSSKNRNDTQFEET
T1 sequence (Q9NZQ7 19-290): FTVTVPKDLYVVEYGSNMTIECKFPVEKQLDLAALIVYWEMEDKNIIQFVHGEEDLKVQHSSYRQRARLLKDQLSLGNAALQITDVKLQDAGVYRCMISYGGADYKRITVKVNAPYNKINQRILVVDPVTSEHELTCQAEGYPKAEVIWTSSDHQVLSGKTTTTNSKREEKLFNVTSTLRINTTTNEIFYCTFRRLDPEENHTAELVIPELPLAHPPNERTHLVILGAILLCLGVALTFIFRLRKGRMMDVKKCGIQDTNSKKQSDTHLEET
T2 sequence (Q9NZQ7 19-238 limits assumed): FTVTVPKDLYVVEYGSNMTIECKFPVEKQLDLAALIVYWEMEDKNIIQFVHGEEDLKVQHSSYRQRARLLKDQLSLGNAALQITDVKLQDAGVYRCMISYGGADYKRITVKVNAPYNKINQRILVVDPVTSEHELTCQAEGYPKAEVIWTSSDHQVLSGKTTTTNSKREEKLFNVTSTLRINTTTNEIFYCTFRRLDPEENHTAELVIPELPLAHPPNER

EC50 (read off the curve) [1]: ~0.9 nM
IC50 (read off the curve) [2]: ~2 nM
Kd [3]: 0.452 nM
koff [3]: 0.000193 s⁻¹
kon [3]: 427000 M⁻¹ s⁻¹
EC50 (read off the curve) [4]: ~6 nM
IC50 (read off the curve) [5]: ~3 nM
IC50 (read off the curve) [6]: ~5 nM
IC50 (read off the curve) [7]: ~3 nM
EC50 (read off the curve) [8]: 3 to 4 nM
EC50 (read off the curve) [9]: ~4 nM
B1: PD-L1 antibody YN-035 (antibody, human IgG1, lambda, V domains shown)
VH: QVQLVQSGAEVKKPGSSVKVSCKASRGPFSTYAISWVRQAPGQGLEWMGRIIPILGIANYAQKFQGRVTITADKSTSTAYMELSSLRSEDTAVYYCARTMEGYGFGNFDYWGQGTLVTVSS
VL: QSALTQPASVSGSPGQSITISCTGTVSEVGGYNEVSWYQQHPGKAPKLMIYGNSNRPSGVSNRFSGSKSGNTASLTISGLQAEDEADYYCQSYDSSLSGTVFGGGTKLTVLG
notes: full-length IgG1,lambda

EC50 (read off the curve) [1]: ~1 nM
IC50 (read off the curve) [2]: ~2 nM
Kd [3]: 0.474 nM
koff [3]: 0.000175 s⁻¹
kon [3]: 369000 M⁻¹ s⁻¹
EC50 (read off the curve) [4]: ~4 nM
IC50 (read off the curve) [5]: ~2 nM
IC50 (read off the curve) [6]: ~5 nM
IC50 (read off the curve) [7]: ~3 nM
EC50 (read off the curve) [8]: 3 to 4 nM
EC50 (read off the curve) [9]: ~4 nM
B2: PD-L1 antibody YN-036 (antibody, human IgG1, lambda, V domains shown)
VH: B1 VH with E101G, G102E, G104S, F105Y, F108Y
VL: B1 VL
notes: full-length IgG1,lambda

Reference: patent US20210261677A1 (ORICELL THERAPEUTICS, published 2021)
